According to publication PMC8942982, “The role of lysine palmitoylation/myristoylation in the function of the TEAD transcription factors” (Scientific Reports, 2022):
Numbering of substitutions follows the chain as printed.

B1: Yorkie, residues 30-146 (Yki^30-146) (domain or fragment, Drosophila melanogaster, UniProt Q45VV3 30-146, looked up)
chain: SNNLVVRVNQDTDDNLQALFDSVLNPGDAKRPLQLPLRMRKLPNSFFTPPAPSHSRANSADSTYDAGSQSSINIGNKASIVQQPDGQSPIAAIPQLQIQPSPQHSRLAIHHSRARSS
B2: Vestigial, residues 263-382 (Vg^263-382) (domain or fragment, Drosophila melanogaster, UniProt Q26366 263-382, looked up)
chain: ETPMGSGGGGLAGSGQGQAQYLSASCVVFTNYSGDTASQVDEHFSRALNYNNKDSKESSSPMSNRNFPPSFWNSNYVHPIPAPTHHQVSDLYGTATDTGYATDPWVPHAAHYGSYAHAAH

Key:
Assay in all cases: SPR; biotinylated-Avitagged Sd proteins immobilized on sensor chips; Yki^30-146 or Vg^263-382 as analyte; carried out as previously described (ref. 28)
Details in all cases: both partners purified
[1] = target: T1, Scalloped, residues 223-440, Glu352Gln mutant (Glu352Gln^Sd) (Drosophila melanogaster, UniProt P30052 223-440, Glu352Gln, acylated to completion with Myristoyl-Coenzyme A: predominantly on Lys350 (hydroxylamine-insensitive, 90%), the rest on Cys373 (10%); biotin on the Avitag)
T1 construct: Scalloped (Sd), Drosophila homolog of human TEAD, UniProtKB P30052, residues 223-440, with Glu352Gln; Mutation introduced into wt^Sd; source: E. coli, purified in a similar manner to wt^Sd, treated with Myristoyl-Coenzyme A
T1 sequence (looked up): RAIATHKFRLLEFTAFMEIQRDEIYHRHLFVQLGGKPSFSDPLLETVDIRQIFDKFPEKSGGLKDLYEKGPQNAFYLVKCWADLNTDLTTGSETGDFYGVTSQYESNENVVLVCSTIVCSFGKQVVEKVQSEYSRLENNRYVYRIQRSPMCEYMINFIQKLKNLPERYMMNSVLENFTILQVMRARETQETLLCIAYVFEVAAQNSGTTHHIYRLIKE

[2] = target: T2, Scalloped, residues 223-440, Lys350Ala mutant (Lys350Ala^Sd) (Drosophila melanogaster, UniProt P30052 223-440, Lys350Ala, acylated to completion with Myristoyl-Coenzyme A, only on Cys373 (hydroxylamine-sensitive, 100%); biotin on the Avitag)
T2 construct: Scalloped (Sd), Drosophila homolog of human TEAD, UniProtKB P30052, residues 223-440, with Lys350Ala; Mutation introduced into wt^Sd; source: E. coli, purified in a similar manner to wt^Sd, treated with Myristoyl-Coenzyme A
T2 sequence (looked up): T1 sequence (looked up) with K128A, Q130E

[3] = target: T3, Scalloped, residues 223-440, wild type (Sd^223-440) (Drosophila melanogaster, UniProt P30052 223-440, acylated to completion with Myristoyl-Coenzyme A: a mixture acylated on Cys373 (hydroxylamine-sensitive, 47%) or on Lys350 (hydroxylamine-insensitive, 54%); biotin on the Avitag)
T3 construct: Scalloped (Sd), Drosophila homolog of human TEAD, UniProtKB P30052, residues 223-440; also called wt^Sd
T3 sequence (looked up): T1 sequence (looked up) with Q130E

Binder	Kd [1] [nM]	Kd [2] [nM]	Kd [3] [nM]
B1	4.9	14	9.5
B2	0.37	2.3	0.38
